Experiment [1] has as its target T1, GST-IbIIa (IP3-binding region of mouse IP3R1) (Mus musculus, UniProt P11881).
T1 construct: GST-IbIIa (amino acids 224-604 of mouse IP3R1) and its site-directed mutants K508A and R441Q; made in house
Nature of the experiment: GST pulldown with GST-IbIIa. The following applies: IRBIT in high salt extract. An excerpt:
(§1) The cDNAs encoding the full-length and N-terminal region (amino acids 1-104) of IRBIT were subcloned into the Escherichia coli hexahistidine (His) fusion vector pET-23a(+) (Novagen) to generate IRBIT-His and IRBIT(1-104)-His expression vectors, respectively. The same cDNAs were subcloned into the GST fusion vector pGEX-4T-1 (Amersham Pharmacia Biotech) to generate GST-IRBIT and GST-IRBIT(1-104) expression vectors, respectively. The cDNA fragments encoding the amino acids 1-225, 1-343, 341-923, 600-1248, 916-1581 and 1553-1943 of the amino acid sequence (SEQ ID NO: 7) of mouse IP3R1 were inserted into pGEX-KG to generate GST-Ia, GST-Iab, GST-IIab, GST-IIbIIIa, GST-IIIab and GST-IV expression vectors, respectively. The amino acids 1593-2217 of mouse IP3R1 were inserted into pGEX-4T-1 to obtain GST-IV-Va expression vector. These fusion proteins were expressed in Escherichia coli. GST-EL was expressed in Sf9 cells as described above. […]
(§2) For the determination of the IRBIT binding region and the critical amino acid residue of IP3R1, the diluted high salt extract was subjected to pulldown assay as described above with 100 pmol of GST, GST-EL, GST-Ia, GST-Iab, GST-IbIIa, GST-IIab, GST-IIbIIIa, GST-IIIab, GST-IV, GST-IV-Va, K508A or R441Q, and analyzed by Western blotting with anti-IRBIT antibody.

In experiment [2] the target is T2, R441Q mutant of GST-IbIIa (Mus musculus, UniProt P11881, R441Q).
T2 construct: GST-IbIIa (amino acids 224-604 of mouse IP3R1) and its site-directed mutants K508A and R441Q; made in house
T2 sequence (P11881 224-604 R441Q): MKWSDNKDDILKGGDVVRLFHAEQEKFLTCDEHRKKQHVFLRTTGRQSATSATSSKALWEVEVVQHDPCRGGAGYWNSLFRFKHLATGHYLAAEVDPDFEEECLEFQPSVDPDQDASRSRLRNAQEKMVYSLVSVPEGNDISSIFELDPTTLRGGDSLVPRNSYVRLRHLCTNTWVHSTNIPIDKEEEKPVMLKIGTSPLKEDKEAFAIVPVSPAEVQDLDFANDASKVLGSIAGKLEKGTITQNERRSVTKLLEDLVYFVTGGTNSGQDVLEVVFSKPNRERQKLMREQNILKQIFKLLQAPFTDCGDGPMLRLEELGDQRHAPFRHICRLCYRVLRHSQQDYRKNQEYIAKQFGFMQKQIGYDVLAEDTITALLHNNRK
Nature of the experiment: GST pulldown with R441Q. It is filed as binding. The following applies: IRBIT in high salt extract; compared with GST-IbIIa.
From the text: as §1, §2

In another experiment the target is T3, GST-EL (IP3R) (Mus musculus, UniProt P11881, N1264K).
T3 construct: construct a GST-IP3R1 (1-2217) vector (termed GST-EL); made in house; host or cells: GST-EL: Sf9 cells; His-IRBIT: Sf9 cells or E. coli
T3 sequence (P11881 1-2217 N1264K): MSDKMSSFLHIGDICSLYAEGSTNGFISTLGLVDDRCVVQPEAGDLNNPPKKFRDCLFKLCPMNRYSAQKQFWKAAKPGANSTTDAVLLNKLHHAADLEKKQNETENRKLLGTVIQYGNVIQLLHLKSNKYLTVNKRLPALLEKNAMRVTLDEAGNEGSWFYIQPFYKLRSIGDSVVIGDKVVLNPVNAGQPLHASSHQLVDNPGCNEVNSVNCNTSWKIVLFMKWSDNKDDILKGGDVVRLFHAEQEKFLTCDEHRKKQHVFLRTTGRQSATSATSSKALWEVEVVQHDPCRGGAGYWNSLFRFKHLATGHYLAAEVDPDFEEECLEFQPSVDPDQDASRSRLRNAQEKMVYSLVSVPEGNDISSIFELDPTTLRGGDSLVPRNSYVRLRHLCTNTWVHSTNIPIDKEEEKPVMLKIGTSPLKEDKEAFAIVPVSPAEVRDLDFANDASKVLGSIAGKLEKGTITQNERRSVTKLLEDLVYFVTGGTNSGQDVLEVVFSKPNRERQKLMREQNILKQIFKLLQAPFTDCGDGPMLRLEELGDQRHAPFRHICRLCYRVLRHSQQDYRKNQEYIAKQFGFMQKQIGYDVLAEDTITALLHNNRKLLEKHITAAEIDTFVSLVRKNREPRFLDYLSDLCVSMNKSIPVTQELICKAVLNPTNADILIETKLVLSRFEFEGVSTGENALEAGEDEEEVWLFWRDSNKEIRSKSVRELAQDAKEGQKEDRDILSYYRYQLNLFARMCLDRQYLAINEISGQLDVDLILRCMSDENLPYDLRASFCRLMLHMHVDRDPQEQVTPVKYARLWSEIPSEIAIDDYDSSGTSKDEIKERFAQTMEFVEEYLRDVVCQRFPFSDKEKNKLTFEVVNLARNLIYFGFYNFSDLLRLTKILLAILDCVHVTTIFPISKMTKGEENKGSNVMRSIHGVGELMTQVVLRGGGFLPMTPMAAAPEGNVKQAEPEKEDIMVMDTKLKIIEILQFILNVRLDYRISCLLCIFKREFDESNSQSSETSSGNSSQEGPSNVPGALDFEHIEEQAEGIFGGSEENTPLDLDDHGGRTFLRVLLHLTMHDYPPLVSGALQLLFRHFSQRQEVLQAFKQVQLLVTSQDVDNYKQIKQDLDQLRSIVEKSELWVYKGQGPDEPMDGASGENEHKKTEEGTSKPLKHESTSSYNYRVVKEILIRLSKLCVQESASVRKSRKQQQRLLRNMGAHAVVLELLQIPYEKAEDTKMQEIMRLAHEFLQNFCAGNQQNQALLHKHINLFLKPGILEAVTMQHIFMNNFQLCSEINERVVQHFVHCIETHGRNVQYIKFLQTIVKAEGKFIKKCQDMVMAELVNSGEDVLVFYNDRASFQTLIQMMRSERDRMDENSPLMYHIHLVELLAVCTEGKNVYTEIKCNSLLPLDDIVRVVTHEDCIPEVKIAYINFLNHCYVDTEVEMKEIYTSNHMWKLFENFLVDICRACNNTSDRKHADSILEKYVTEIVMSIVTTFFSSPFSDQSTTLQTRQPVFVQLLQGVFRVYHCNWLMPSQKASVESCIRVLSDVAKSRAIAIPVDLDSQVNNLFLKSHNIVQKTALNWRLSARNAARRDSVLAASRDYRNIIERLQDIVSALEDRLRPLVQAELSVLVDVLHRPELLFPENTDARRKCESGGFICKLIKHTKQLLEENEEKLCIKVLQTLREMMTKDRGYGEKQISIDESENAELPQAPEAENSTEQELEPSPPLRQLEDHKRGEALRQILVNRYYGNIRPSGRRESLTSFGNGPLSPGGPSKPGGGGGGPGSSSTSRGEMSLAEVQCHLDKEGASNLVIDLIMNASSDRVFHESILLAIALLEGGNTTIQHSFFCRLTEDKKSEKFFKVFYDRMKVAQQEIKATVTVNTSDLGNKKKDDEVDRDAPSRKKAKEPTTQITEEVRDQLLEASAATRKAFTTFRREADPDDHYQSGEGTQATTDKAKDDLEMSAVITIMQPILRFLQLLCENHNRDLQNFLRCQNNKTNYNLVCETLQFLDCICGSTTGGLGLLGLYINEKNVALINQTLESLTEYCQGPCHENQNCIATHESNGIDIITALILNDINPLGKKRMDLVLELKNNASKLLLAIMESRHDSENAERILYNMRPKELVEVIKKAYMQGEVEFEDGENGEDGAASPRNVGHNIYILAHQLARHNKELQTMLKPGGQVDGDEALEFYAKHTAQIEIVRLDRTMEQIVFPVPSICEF
Nature of the experiment: [3H]IP3 binding to GST-EL. The following applies: IRBIT treated with alkaline phosphatase. The procedure: (A) 0.2 μg of GST-EL was incubated with 0.1, 1, or 10 μg of purified His-tagged IRBIT expressed in Sf9 cells or E. coli in a solution containing 50 mM Tris-HCl (pH 8.0), 1 mM EDTA, and 1 mM 2-mercaptoethanol, for 30 min on ice. Then 8.7 nM [^3H]IP3 (PerkinElmer Life Sciences) was added to the samples and incubated for 10 min on ice (total volume was 50 μl). The samples were mixed with 2 μl of 50 mg/ml γ-globulin and 50 μl of 30% PEG6000, 50 mM Tris-HCl (pH 8.0), and incubated for 5 min on ice. Non-specific binding was measured in the presence of 10 μM cold IP3. After centrifugation at 20,000×g for 5 min, the precipitate was dissolved in SOLVABLE™ (Packard) and the radioactivity was measured with a liquid scintillation counter (Beckman Coulter). Results are shown as the mean±S.D. from three independent experiments. (B) Purified His-IRBIT expressed in Sf9 cells was incubated with alkaline phosphatase for 30 min at 37° C. prior to the IP3 binding assay described as in (A). (C and D) Scatchard analysis. 0.1 μg of GST-EL was incubated with or without 1 μg of purified His-tagged IRBIT expressed in Sf9 cells as described in (A). Then 2.17 nM [^3H]IP3 and 2-500 nM cold IP3 were added to the samples and incubated for 10 min on ice (total volume was 100 μl). Non-specific binding was measured in the presence of 10 μM cold IP3. [^3H]IP3 binding to GST-EL was measured as described in (A).
The effect of IRBIT on binding of IP3 to IP3R was examined. GST-EL (0.2 μg) was incubated with 0.1, 1, or 10 μg of purified His-tagged IRBIT expressed in Sf9 cells or E. coli in a solution containing 50 mM Tris-HCl (pH 8.0), 1 mM EDTA, and 1 mM 2-mercaptoethanol, for 30 min on ice. Then 8.7 nM [^3H]IP3 (PerkinElmer Life Sciences) was added to the samples and incubated for 10 min on ice (total volume was 50 μl). The samples were mixed with 2 μl of 50 mg/ml γ-globulin and 50 μl of 30% PEG6000, 50 mM Tris-HCl (pH 8.0), and incubated for 5 min on ice. Non-specific binding was measured in the presence of 10 μM cold IP3. After centrifugation at 20,000×g for 5 min, the precipitate was dissolved in SOLVABLE™ (Packard) and the radioactivity was measured with a liquid scintillation counter (Beckman Coulter). […] 0.1 μg of GST-EL was incubated with or without 1 μg of purified His-tagged IRBIT expressed in Sf9 cells as described in (A). Then 2.17 nM [^3H]IP3 and 2-500 nM cold IP3 were added to the samples and incubated for 10 min on ice (total volume was 100 μl). Non-specific binding was measured in the presence of 10 μM cold IP3. [^3H]IP3 binding to GST-EL was measured as described in (A). […] Bmax was not changed.

T1 sequence (P11881 224-604): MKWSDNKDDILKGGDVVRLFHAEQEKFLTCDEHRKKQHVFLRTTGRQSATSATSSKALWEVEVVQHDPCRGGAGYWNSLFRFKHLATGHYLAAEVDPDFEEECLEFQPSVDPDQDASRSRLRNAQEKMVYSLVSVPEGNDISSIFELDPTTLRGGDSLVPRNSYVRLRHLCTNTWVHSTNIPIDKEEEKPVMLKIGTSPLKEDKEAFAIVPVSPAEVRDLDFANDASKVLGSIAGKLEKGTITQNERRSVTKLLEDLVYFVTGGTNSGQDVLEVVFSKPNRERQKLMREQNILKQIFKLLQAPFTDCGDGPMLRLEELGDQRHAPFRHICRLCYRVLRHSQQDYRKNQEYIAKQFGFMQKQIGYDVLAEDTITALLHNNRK

B1: IRBIT: novel IP3 receptor-binding protein of 530 amino acids, SEQ ID NO: 1 (protein, listed as Mus musculus)
chain: MSMPDAMPLPGVGEELKQAKEIEDAEKYSFMATVTKAPKKQIQFADDMQEFTKFPTKTGRRSLSRSISQSSTDSYSSAASYTDSSDDEVSPREKQQTNSKGSSNFCVKNIKQAEFGRREIEIAEQDMSALISLRKRAQGEKPLAGAKIVGCTHITAQTAVLIETLCALGAQCRWSACNIYSTQNEVAAALAEAGVAVFAWKGESEDDFWWCIDRCVNMDGWQANMILDDGGDLTHWVYKKYPNVFKKIRGIVEESVTGVHRLYQLSKAGKLCVPAMNVNDSVTKQKFDNLYCCRESILDGLKRTTDVMFGGKQVVVCGYGEVGKGCCAALKALGAIVYITEIDPICALQACMDGFRVVKLNEVIRQVDVVITCTGNKNVVTREHLDRMKNSCIVCNMGHSNTEIDVTSLRTPELTWERVRSQVDHVIWPDGKRVVLLAEGRLLNLSCSTVPTFVLSITATTQALALIELYNAPEGRYKQDVYLLPKKMDEYVASLHLPSFDAHLTELTDDQAKYLGLNKNGPFKPNYYRY
As for B1, the “binding to GST-IbIIa” value in experiment [1] is recorded as “to the same extent as GST-EL”. In experiment [2], the “binding to R441Q” value is reported as “to the same extent”. In the experiment with GST-EL (IP3R), the “effect on IP3 binding of GST-EL after dephosphorylation” value is recorded as “reduced effect”.

The values are drawn from patent publication US20050181450A1, “Novel inositol 1,4,5-trisphosphate (IP3) receptor-binding protein and an IP3 indicator” (priority 2002, published 2005).
